Data as given in patent US20120093826A1.
Values belong to the molecule of their own block, whether it stands above or below them.

Columns and labels:
[1] = molecular target: human CADM1 (cell surface, on CADM1-expressing human tumour cells and tissues) (human) (UniProt Q9BY67); assay: cell-based or functional assay
[2] = molecular target: human CADM1 (cell surface, on CADM1-expressing human tumour cells and tissues) (human) (UniProt Q9BY67); assay: flow cytometry histogram on 786-0 cells, isotype control
[3] = molecular target: human CADM1 (cell surface, on CADM1-expressing human tumour cells and tissues) (human) (UniProt Q9BY67); assay: flow cytometry histogram on SKMEL28 cells, isotype control
[4] = molecular target: human CADM1 (cell surface, on CADM1-expressing human tumour cells and tissues) (human) (UniProt Q9BY67); assay: flow cytometry on NCI-H69 cells expressing human CADM1
[5] = molecular target: human CADM1 (cell surface, on CADM1-expressing human tumour cells and tissues) (human) (UniProt Q9BY67); assay: flow cytometry histogram on SKMEL28 cells
[6] = molecular target: human CADM1 (cell surface, on CADM1-expressing human tumour cells and tissues) (human) (UniProt Q9BY67); assay: flow cytometry (FACS Geomean) titration on A549 non-small cell lung cancer cells
[7] = molecular target: human CADM1 (cell surface, on CADM1-expressing human tumour cells and tissues) (human) (UniProt Q9BY67); assay: flow cytometry (FGMI) titration on SkMel28 melanoma cells; table under the plot
[8] = molecular target: human CADM1 (cell surface, on CADM1-expressing human tumour cells and tissues) (human) (UniProt Q9BY67); assay: flow cytometry (FACS Geomean) titration on A549 non-small cell lung cancer cells; the table under the plot prints no unit, nM is the unit of the x axis 'Ab conc in nM'
[9] = molecular target: human CADM1 (cell surface, on CADM1-expressing human tumour cells and tissues) (human) (UniProt Q9BY67); assay: flow cytometry histogram on 786-0 cells
[10] = molecular target: human CADM1 (cell surface, on CADM1-expressing human tumour cells and tissues) (human) (UniProt Q9BY67); assay: flow cytometry (FACS Geomean) titration on SKOV3 ovarian cancer cells; the table under the plot prints no unit, nM is the unit of the x axis 'Ab conc in nM'
[11] = molecular target: human CADM1 (cell surface, on CADM1-expressing human tumour cells and tissues) (human) (UniProt Q9BY67); assay: flow cytometry (FGMI) titration on 786-O renal cell carcinoma cells; table under the plot

Sequence of UniProt Q9BY67 (Q9BY67 45-442): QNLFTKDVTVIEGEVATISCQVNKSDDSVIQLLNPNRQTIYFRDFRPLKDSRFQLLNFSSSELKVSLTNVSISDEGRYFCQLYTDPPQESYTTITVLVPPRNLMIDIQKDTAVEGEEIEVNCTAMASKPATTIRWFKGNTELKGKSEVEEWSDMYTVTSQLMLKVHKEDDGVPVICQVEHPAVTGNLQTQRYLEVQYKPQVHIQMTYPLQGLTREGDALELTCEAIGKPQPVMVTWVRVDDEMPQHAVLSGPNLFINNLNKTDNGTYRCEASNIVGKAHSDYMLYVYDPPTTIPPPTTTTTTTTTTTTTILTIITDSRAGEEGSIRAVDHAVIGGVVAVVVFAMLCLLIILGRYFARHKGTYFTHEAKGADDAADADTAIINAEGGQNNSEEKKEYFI

Molecule: Isotype Control (antibody)
% Specific Lysis: DMS79 (ADCC) [1]: 2.96% | % Specific Lysis: NCI-H69 (ADCC) [1]: 3.3% | number in the histogram legend box (name not given; axis FL2-H) [2]: 8.39 | number in the histogram legend box (name not given; axis FL2-H) [3]: 10.5

B2: PTA021_A2 human monoclonal antibody (antibody, V domains shown)
VH: QITLKESGPTLVKPTQTLTLTCTFSGFSLSTSGVGVGWIRQPPGKALEWLALIYWDDDKRYSPSLKSRLTITKDTSKNQVVLTMTNMDPVDTAIYYCAHRRVEWFALAGNWFDPWGQGSLVTVSS
VL: DIQMTQSPSSLSASVGDRVTITCRASQGISSWLAWYQQKPEKAPKSLIYAASSLQSGVPSRFSGSGSGTDFTLTISSLQPEDFATYYCQQYNSYPLTFGGGTKVEIK
% Specific Lysis: DMS79 (ADCC) [1]: 34.7% | % Specific Lysis: NCI-H69 (ADCC) [1]: 15.9% | EC50 [4]: 0.667 nM

Further lines, results first:

% Specific Lysis: DMS79 (ADCC) [1]: 37.8% | % Specific Lysis: NCI-H69 (ADCC) [1]: 24.6% | EC50 [4]: 0.588 nM
B1: PTA021_A1 human monoclonal antibody (antibody, V domains shown)
VH: QITLKESGPTLVKPTQTLTLTCTFSGFSLNTSGVGVGWIRQPPGKALEWLALIYWDDDKRYSPSLKSRLTITKDTSKNQVVLTMTNMDPVDTATYYCAHRRVEWVALAGNWFDPWGQGTLVTVSS
VL: DIQMTQSPSSLSASVGDRVTITCRASQGISSWLAWYQQKPEKAPKSLIYGASSLQSGVPSRFSGSGSGTDFTLTISNLQPEDFATYYCQQYNSYPLTFGGGTKVEIK

% Specific Lysis: DMS79 (ADCC) [1]: 61% | % Specific Lysis: NCI-H69 (ADCC) [1]: 29.8% | number in the histogram legend box (name not given; axis FL2-H) [5]: 25.9 | EC50 (read off the curve) [6]: 4 nM | EC50 [4]: 0.674 nM | EC50 [7]: 4.42 nM | EC50 [8]: 3.65 nM | number in the histogram legend box (name not given; axis FL2-H) [9]: 42.6 | EC50 [10]: 12.6 nM | EC50 [11]: 3.25 nM
B3: PTA021_A3 human monoclonal antibody (antibody, V domains shown)
VH: QITLKESGPTLVKPTQTLTLTCTFSGFSLSTSGVGVGWIRQPPGKALEWLALIYWDDDKRYSPSLKSRLTITKDTSKNQVVLTMTNMDPVDTATYYCAHRRVEWVTLAGNWFDPWGQGTLVTVSS
VL: DIQMTQSPSSLSASVGDRVTITCRASQGISSWLAWYQQKPEKAPKSLIYAASSLQSGVPSRFSGSGSGTDFTLTISNLQPEDFATYYCQQYNSYPLTFGGGTKVEIK
